Reference: patent publication US20250000991A1 (Eli Lilly, published 2025)

B1: Ab3 (antibody, human IgG1, kappa, L234A L235A, V domains shown)
VH: EVQLVESGGGLVKPGGSLRLSCAASGFNLNHYNMNWVRQAPGKGLEWVSSVSSGGGFRYYADSVRGRFTISRDNAKNSLYLQMNSLRAEDTAVYYCARGAVFHDAFDIWGQGTLVTVSS
VL: DIQLTQSPSFLSASVGDRVTITCRASQDISSYLAWYQQKPGKAPKLLIYVASTLQSGVPSRFSGSGSGTEFTLTISSLQPEDFATYYCQQINSYPFTFGQGTKVEIKR
notes: Unconjugated antibody; also called Antibody 3; nectin-4 antibody Ab3
B2: Ab5 (antibody, human IgG1, kappa, L234A L235A, V domains shown)
VH: QVQLVQSGAEVKKPGASVKVSCKASGYTFTSYYVHWVRQAPGQGLEWMGIINPSIISTSYAQKFQARVTMTRDTSTSTVYMELSSLRSEDTAVYYCARGLNFDAFDIWGQGTLVTVSS
VL: DIQLTQSPSFLSASVGDRVTITCRASQGISSYLAWYQQKPGKAPKLLIYAASTLQSGVPSRFSGSGSGTEFTLTISSLQPEDFATYYCQQLNNYPFTFGQGTKVEIKR
notes: Unconjugated antibody; also called Antibody 5; nectin-4 antibody Ab5
B3: Ab4 (antibody, human IgG1, kappa, L234A L235A, V domains shown)
VH: QVQLQESGPGLVKPSETLSLTCTVSGGSISGYYWSWIRQPPGKGLEWIGYIYYSGSTNYNPSLKSRVTISVDTSKNQFSLKLSSVTAADTAVYYCARLGIFFDAFDIWGQGTLVTVSS
VL: DIQLTQSPSFLSASVGDRVTITCRASQGISSYLAWYQQKPGKAPKLLIYAASTLQSGVPSRFSGSGSGTEFTLTISSLQPEDFATYYCQQFNSYPWTFGQGTKVEIKR
notes: Unconjugated antibody; also called Antibody 4
B4: Ab4 ADC (Ab4 conjugated as in Formula XI, DAR of 8) (antibody, human IgG1, kappa, L234A L235A, V domains shown)
VH: QVQLQESGPGLVKPSETLSLTCTVSGGSISGYYWSWIRQPPGKGLEWIGYIYYSGSTNYNPSLKSRVTISVDTSKNQFSLKLSSVTAADTAVYYCARLGIFFDAFDIWGQGTLVTVSS
VL: DIQLTQSPSFLSASVGDRVTITCRASQGISSYLAWYQQKPGKAPKLLIYAASTLQSGVPSRFSGSGSGTEFTLTISSLQPEDFATYYCQQFNSYPWTFGQGTKVEIKR
modifications: camptothecin analog linker-payload of Formula XI on cysteine thiols after full reduction, DAR of 8 per antibody; positions not given
notes: Antibody-drug conjugate of Ab4; also called Ab4 (ADC column)
B5: Ab6 (antibody, human IgG1, lambda, L234A L235A, V domains shown)
VH: QVQLVQSGAEVKKPGASVKVSCKASGYTFTGYYMHWVRQAPGQGLEWMGIINPSGGSTTYAQKFQGRVTMTRDTSTSTVYMELSSLRSEDTAVYYCARGRLGTYFDYWGQGTLVTVSS
VL: SYVLTQPPSVSVAPGQTARITCGGNNIGSKSVHWYQQKPGQAPVLVVYDDSDRPSGIPERFSGSNSGNTATLTISRVEAGDEADYYCQVWDRSSDQVVFGGGTKLTVLG
notes: Unconjugated antibody; also called Antibody 6; nectin-4 antibody Ab6
B6: Ab6 ADC (Ab6 conjugated as in Formula XI, DAR of 8) (antibody, human IgG1, lambda, L234A L235A, V domains shown)
VH: QVQLVQSGAEVKKPGASVKVSCKASGYTFTGYYMHWVRQAPGQGLEWMGIINPSGGSTTYAQKFQGRVTMTRDTSTSTVYMELSSLRSEDTAVYYCARGRLGTYFDYWGQGTLVTVSS
VL: SYVLTQPPSVSVAPGQTARITCGGNNIGSKSVHWYQQKPGQAPVLVVYDDSDRPSGIPERFSGSNSGNTATLTISRVEAGDEADYYCQVWDRSSDQVVFGGGTKLTVLG
modifications: camptothecin analog linker-payload of Formula XI on cysteine thiols after full reduction, DAR of 8 per antibody; positions not given
notes: Antibody-drug conjugate of Ab6; also called Ab6 (ADC column)
B7: Ab1a (antibody, human IgG1, kappa, L234A L235A, V domains shown)
VH: QVQLVQSGAQVKKPGASVKVSCKASGYTFTGYYIHWVRQAPGQGLEWMGWINPNSGGTNYAQKFQGRVTMTRDTSISTAYMELSRLRSDDTAVYFCAREDWDFDYWGQGTLVTVSS
VL: EIVLTQSPGTLSLSPGERATLSCRTSQSVSSSYLAWYQQKPGQAPRLLIYGASNRATDIPDRFSGSGSGTDFTLTINRLEPEDFAVYYCQQYGSSPITFGQGTRLEIKR
notes: Unconjugated antibody; also called nectin-4 antibody Ab1a
B8: Ab7 (antibody, human IgG1, lambda, L234A L235A, V domains shown)
VH: QVQLVQSGAEVKKPGASVKVSCKASGYTFTNYYMHWVRQAPGQGLEWMGIINPSSGSASYAQKFQGRVTMTRDTSTSTVYMELSSLRSEDTAVYYCAREGVGRDILQAFDIWGQGTLVTVSS
VL: QSVLTQPPSVSEAPRQRVTISCSGSSSNIGNNAVNWYQQLPGKAPKLLIYYDDLLPSGVSDRFSGSKSGTSASLAISGLQSEDEADYYCAAWDDSLNGHVFGGGTKLTVLG
notes: Unconjugated antibody; also called Antibody 7; nectin-4 antibody Ab7
B9: Ab8 (antibody, human IgG1, lambda, L234A L235A, V domains shown)
VH: QVQLVQSGAEVKKPGASVKVSCKASGYTFTSYYIHWVRQAPGQGLEWMGIINPISGRTSSAQKFQGRVTMTRDTSTSTVYMELSSLRSEDTAVYYCAKEGVGGELLRAFDIWGQGTLVTVSS
VL: QSVLTQPPSVSEAPRQRVTISCSGSSSNIGNNAVNWYQQLPGKAPKLLIYYDDLLPSGVSDRFSGSKSGTSASLAISGLQSEDEADYYCAAWDDSLNGFVFGGGTKLTVLG
notes: Unconjugated antibody; also called Antibody 8; nectin-4 antibody Ab8

Key:
[1] = target: T1, human Nectin-4-eGFP on T24 cells (clone 3) (human, UniProt Q96NY8 32-510); test: cell-based or functional assay
T1 sequence: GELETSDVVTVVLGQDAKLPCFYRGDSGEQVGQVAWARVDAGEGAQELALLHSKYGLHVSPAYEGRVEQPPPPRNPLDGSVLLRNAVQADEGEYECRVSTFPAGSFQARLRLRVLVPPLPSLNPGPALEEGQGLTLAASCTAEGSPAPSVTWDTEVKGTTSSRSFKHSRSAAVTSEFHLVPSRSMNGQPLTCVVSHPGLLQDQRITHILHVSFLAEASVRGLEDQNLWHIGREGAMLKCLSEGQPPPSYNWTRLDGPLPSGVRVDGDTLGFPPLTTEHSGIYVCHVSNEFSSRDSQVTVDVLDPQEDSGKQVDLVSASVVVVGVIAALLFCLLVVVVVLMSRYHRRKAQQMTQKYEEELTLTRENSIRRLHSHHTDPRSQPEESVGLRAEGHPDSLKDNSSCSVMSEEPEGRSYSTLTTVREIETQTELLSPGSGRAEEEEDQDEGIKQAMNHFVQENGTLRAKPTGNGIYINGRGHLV

[2] = target: T2, human nectin-4 on cells (human, UniProt Q96NY8 32-510); test: flow cytometry, SUM190PT cells (high endogenous nectin-4)
T2 construct: also called Nectin-4 receptor
T2 sequence: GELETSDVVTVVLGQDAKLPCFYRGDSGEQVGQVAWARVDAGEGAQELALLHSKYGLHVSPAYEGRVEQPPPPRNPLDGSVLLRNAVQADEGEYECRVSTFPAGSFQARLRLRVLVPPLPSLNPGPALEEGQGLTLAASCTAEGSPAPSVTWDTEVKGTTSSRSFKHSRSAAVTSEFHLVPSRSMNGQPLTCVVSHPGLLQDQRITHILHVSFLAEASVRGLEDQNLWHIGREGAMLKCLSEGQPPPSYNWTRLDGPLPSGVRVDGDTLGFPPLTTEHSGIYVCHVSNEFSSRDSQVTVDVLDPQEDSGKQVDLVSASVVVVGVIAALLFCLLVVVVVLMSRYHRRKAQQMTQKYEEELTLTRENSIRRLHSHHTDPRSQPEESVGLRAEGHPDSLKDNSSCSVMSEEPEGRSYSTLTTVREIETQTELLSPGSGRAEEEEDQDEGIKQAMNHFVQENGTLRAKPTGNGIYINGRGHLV

[3] = target: T2, human nectin-4 on cells; test: flow cytometry, NCI-H1781 cells (low endogenous nectin-4)
[4] = target: T3, recombinant HIS-tagged human nectin-4 (Acro Biosystems Cat. No. NE4-H52H3) (human, UniProt Q96NY8 32-349); test: SPR Biacore 8K+, ADC captured via anti-human Fc, nectin-4 analyte, 37 C;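 also: Nectin-4 injected over captured ADC at 0 to 600 nM for 2 min association, then 10 min dissociation, with a reference flow cell lacking ADC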
T3 construct: Bought protein; not shown: HIS tag
T3 sequence: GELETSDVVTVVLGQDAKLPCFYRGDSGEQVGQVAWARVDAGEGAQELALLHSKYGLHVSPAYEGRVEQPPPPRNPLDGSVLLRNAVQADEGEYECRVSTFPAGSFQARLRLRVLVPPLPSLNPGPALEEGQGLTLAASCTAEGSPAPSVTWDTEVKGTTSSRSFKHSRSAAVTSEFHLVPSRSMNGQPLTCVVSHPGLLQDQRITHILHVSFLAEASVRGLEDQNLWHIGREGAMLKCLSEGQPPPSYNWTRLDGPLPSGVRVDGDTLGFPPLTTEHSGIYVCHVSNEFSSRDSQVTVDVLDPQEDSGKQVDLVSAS

[5] = target: T2, human nectin-4 on cells; test: cell-based or functional assay
[6] = target: T4, recombinant HIS-tagged rat nectin-4 (R&D Systems Cat. No. 9997-N4-050) (rat, UniProt D3ZET1 31-348); test: SPR Biacore 8K+, ADC captured via anti-human Fc, nectin-4 analyte, 37 C;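 also: Nectin-4 injected over captured ADC at 0 to 600 nM for 2 min association, then 10 min dissociation, with a reference flow cell lacking ADC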
T4 construct: Bought protein; HIS tag not described
T4 sequence: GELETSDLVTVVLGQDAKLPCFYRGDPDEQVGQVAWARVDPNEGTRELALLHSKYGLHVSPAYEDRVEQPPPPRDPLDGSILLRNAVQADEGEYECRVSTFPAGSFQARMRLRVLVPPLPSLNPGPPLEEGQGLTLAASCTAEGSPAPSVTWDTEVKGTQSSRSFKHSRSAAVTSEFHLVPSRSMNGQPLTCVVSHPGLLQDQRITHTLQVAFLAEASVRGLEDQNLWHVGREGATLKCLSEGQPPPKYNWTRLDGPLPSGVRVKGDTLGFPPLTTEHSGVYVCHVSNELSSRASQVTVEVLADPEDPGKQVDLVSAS

Binder	% activity (max GFP signal loss compared to enfortumab mAb (100%)) [1]	EC50 (nM) of nectin-4-eGFP signal loss [1]	% of enfortumab (Average Max MFI) [2]	Average Max MFI [2]	EC50 [2]	% of enfortumab (Average Max MFI) [3]	Average Max MFI [3]	EC50 [3]	Kd [4]	Cytotoxicity IC50, NCI H1781 cells [5]	Cytotoxicity IC50, T24 Nectin-4 clone 108 cells [5]	Kd [6]	koff [6]	kon [6]	koff [4]	kon [4]
B1	64.4%	1.3 nM	112%	1.2e+06 MFI	0.23 nM	105%	96000 MFI	0.1 nM								
B2	40.1%	2.69 nM	145%	1.5e+06 MFI	0.31 nM	102%	93000 MFI	0.08 nM								
B3	40.9%	0.41 nM	97.9%	1e+06 MFI	0.19 nM	95.8%	87000 MFI	0.14 nM								
B4	143%	2.1 nM							204 nM	0.311 nM	0.115 nM					
B5	65.1%	41.4 nM	127%	1.3e+06 MFI	0.17 nM	93.8%	85000 MFI	0.03 nM								
B6	118%	2.26 nM							91.8 nM	0.0608 nM	0.0783 nM	114 nM	0.105 s⁻¹	925000 M⁻¹ s⁻¹	0.163 s⁻¹	1.78e+06 M⁻¹ s⁻¹
B7	145%	2.54 nM	55.6%	590000 MFI	0.12 nM	84.5%	77000 MFI	0.2 nM								
B8	66.5%	3.37 nM	112%	1.2e+06 MFI	0.14 nM	96%	87000 MFI	0.09 nM								
B9	53.7%	3.68 nM	81.9%	8.7e+06 MFI	0.11 nM	99.6%	90000 MFI	0.1 nM								
